Measurements published in US20050158748.

Assays:
[1] = system: ribosomal protein S6 (in purified 40S ribosomal subunits from liver)
[2] = system: synthetic peptide representing C-terminus of S6 protein

In the case of “recombinant p70α^S6k (Flag-tag or EE-tag version, expressed in HEK293 cells)”, the “in vitro kinase reaction: phosphorylation of S6 protein in 40S subunits” value [1] is reported as “p70β^S6k (p70β-II isoform) phosphorylates the S6 protein in vitro nearly as efficiently as p70α^S6k” and the “in vitro kinase reaction: phosphorylation of the synthetic peptide” value [2] is reported as “also phosphorylates this peptide but with slightly lower efficiency than observed with p70α^S6k”.
